We go through 1 molecule from article PMC4882459 (The Journal of Biological Chemistry, 2016).

The target of the assay is T1, C1q (human, UniProt P02745 23-245; P02746 28-253; P02747 29-245).
T1 construct: also called human C1q; purified C1q; source: bought: Calbiochem (purified); also endogenous, human serum; copies: + +
As to the kind of experiment: ELISA; C1q binding assay: ES-62, PCh-BSA or CWPS coated to give equivalent CRP binding; CRP 0.4 ug/ml added, then purified C1q at 0, 0.2, 2.0 and 5.0 ug/ml, 1 h at room temperature; detected with anti-C1q. Conditions: both partners purified.

T1 sequence (P02745 23-245, chain 1 of 3): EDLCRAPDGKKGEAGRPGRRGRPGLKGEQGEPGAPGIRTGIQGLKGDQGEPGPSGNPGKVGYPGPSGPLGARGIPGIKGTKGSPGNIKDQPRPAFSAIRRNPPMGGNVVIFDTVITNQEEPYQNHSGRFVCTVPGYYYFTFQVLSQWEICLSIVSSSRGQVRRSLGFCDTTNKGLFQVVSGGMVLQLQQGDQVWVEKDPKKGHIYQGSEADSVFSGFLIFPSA
T1 sequence (P02746 28-253, chain 2 of 3): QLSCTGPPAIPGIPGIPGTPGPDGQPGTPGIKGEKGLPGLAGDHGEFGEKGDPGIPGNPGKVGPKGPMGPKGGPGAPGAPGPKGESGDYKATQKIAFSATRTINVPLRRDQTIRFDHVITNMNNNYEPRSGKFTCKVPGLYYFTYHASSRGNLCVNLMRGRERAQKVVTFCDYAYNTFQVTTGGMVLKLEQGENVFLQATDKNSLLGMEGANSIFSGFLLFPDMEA
T1 sequence (P02747 29-245, chain 3 of 3): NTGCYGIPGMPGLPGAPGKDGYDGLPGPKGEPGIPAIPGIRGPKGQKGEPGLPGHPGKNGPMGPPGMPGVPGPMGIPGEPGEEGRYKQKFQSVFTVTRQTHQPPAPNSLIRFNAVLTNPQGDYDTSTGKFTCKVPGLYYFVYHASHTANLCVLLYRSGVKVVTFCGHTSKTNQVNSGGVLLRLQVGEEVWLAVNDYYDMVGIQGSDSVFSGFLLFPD

B1: C-reactive protein (native, human) (natural protein)
chain: QTDMSRKAFVFPKESDTSYVSLKAPLTKPLKAFTVCLHFYTELSSTRGYSIFSYATKRQDNEILIFWSKDIGYSFTVGGSEILFEVPEVTVAPVHICTSWESASGIVEFWVDGKPRVRKSLKKGYTVGAEASIILGQEQDSFGGNFEGSQSLVGDIGNVNMWDFVLSPDEINTIYLGGPFSPNVLNWRALKYEVQGEVFTKPQLWP
notes: C-reactive protein, human, native pentamer of subunits of ~25 kD; Used as purified protein, as purified protein added to diluted serum, and as the endogenous protein of normal human serum; also called CRP; native CRP; source: also endogenous, normal human serum
For the molecule B1, the binding result is given as “binds”.
